Experimental data taken from US20210179724A1 (TWIST BIOSCIENCE, published 2021).
Substitutions are numbered along the chain they refer to. Numbers in names are those of the source.

Experiments:
adenosine A2A receptor [1] = target: T1, adenosine A2A receptor (Homo sapiens (Human), UniProt P29274 1-412); assay: flow cytometry cell-binding titration 0.05-100 nM IgG; panel title 'Synthetic Library to A2a protein' (panning group)
T1 construct: also called ADORA2; HEK293-A2a cells

adenosine A2A receptor [2] = target: T1, adenosine A2A receptor; assay: cell-based or functional assay
adenosine A2A receptor [3] = target: T1, adenosine A2A receptor; assay: flow cytometry cell-binding titration 0.05-100 nM IgG
adenosine A2A receptor [4] = target: T1, adenosine A2A receptor; assay: flow cytometry cell-binding titration 0.05-100 nM IgG; panel title 'Immune Library to A2a protein + ZM241385' (panning group)
adenosine A2A receptor [5] = target: T1, adenosine A2A receptor; assay: flow cytometry titration 0.05-100 nM IgG; grey series read as HEK293-A2a cells
Method: Flow cytometry data showing binding to HEK293-A2a cells using immunoglobulins from variant libraries were generated using 100 nM IgG and compared to detected binding in parent cells. […] Selected variants were assessed for binding at concentrations titrated from 100 nM. […] Binding curves are plotted with IgG concentration vs. MFI (mean fluorescence intensity). […] Selected variants were assessed for binding at concentrations titrated from 100 nM. […] Binding curves are plotted with IgG concentration vs. MFI (mean fluorescence intensity).

T1 sequence (P29274 whole entry): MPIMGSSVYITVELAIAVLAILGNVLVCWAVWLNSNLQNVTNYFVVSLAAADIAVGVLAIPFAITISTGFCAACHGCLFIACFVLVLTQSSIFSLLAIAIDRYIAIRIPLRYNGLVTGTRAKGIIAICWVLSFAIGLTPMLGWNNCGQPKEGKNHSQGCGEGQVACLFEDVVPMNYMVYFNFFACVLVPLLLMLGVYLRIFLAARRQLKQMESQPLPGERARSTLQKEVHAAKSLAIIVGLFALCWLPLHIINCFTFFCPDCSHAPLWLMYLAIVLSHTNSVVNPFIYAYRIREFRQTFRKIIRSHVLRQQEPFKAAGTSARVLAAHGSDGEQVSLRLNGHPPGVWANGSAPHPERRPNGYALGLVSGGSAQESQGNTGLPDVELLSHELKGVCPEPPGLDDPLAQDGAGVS

B1: A2A-18 (antibody, V domains shown)
VH: EVQLVESGGGLVKPGGSLRLSCAASGFSFSGYAMSWVRQAPGKGLEWVSVISGSGGSTNYADSVKGRFTISRDNSKNTLYLQMNSLRAEDTAVYYCAAARGYPRWRLGRRYDYWGQGTLVTVSS
VL: DIQMTQSPSSLSASVGDRVTITCRASQSVTTYLNWYQQKPGKAPKLLIYSASSLQSGVPSRFSGSGSGTDFTLTISSLQPEDFATYYCQQTYATPWTFGGGTKVEIK
notes: tested as IgG
binding result (adenosine A2A receptor [1]): binds

B2: A2A - 53 (antibody, V domains shown)
VH: EVQLVESGGGLVKPGGSLRLSCAASGFNIIDDYMHWVRQAPGKGLEWVGMITDTGEPTDADSVKGRFTISRDNSKNTLYLQMNSLRAEDTAVYYCVYDYIYAMDYWGQGTLVTVSS
VL: DIQMTQSPSSLSASVGDRVTITCKASQNMGSNVAWYQQKPGKAPKLLIYSASHRSSGVPSRFSGSGSGTDFTLTISSLQPEDFATYYCQQWNYPRITFGQGTKLEIK
IC50 (read off the curve), A2A antagonistic cAMP assay, RFU ratio 665/615 nm, 0.5 uM NECA (adenosine A2A receptor [2]): ~3 nM

B3: A2A - 77 (antibody, V domains shown)
VH: QVQLQESGPGLVKPSGTLSLTCAVSGGSISSSNWWSWVRQPPGKGLEWIGEIYHSGNTNYNPSLKSRVTMSVDKSKNQFSLNLHSVTAADTAVYYCAREVVSGMIGTIFDYWGQGTLVTVSS
VL: ELVMTQSPSSLSASVGDRVTITCRASQRISSYLNWYQQKPGKAPKLLIYAASSLQSRVPSRFSGSGSGTDFTLTISSLQPEDFATYYCQQSYSTPLTFGGGTKLETK
notes: tested as IgG
EC50 (read off the curve) (adenosine A2A receptor [3]): ~6 nM

B4: A2A - 81 (antibody, V domains shown)
VH: B3 VH with N57S, M70I, N82K, H84G, M104L, I105Y
VL: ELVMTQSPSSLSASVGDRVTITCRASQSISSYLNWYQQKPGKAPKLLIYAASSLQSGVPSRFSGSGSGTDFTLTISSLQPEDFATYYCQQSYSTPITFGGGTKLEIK
notes: tested as IgG
binding result (adenosine A2A receptor [4]): binds

B5: A2A-9 (antibody, V domains shown)
VH: EVQLQQSGPGLVKPSQSLSLTCSVTGYSITSGYYWNWIRQFPGKKLEWMGYIRYDGSNNYNPSLKNRISITRDTSKNQFFLKLNSVTTDDTATYYCARVHHYYGSSYFDYWGQGTTLTVSS
VL: DIVMTQSQKFMSTSVGDRVSATCKASQNVGSSVAWFQQKPGQSPKALIYSTSYRYSGVPDRFTGSGSGTDFTLTISNVQSEDLAEYFCQQYNSYPLTFGAGTKLEIK
notes: Tested as IgG; also called A2AR variant A2A-9
EC50 (read off the curve) (adenosine A2A receptor [5]): ~4 nM
